# Test results taken from IntAct's records for PubMed 7851759.
# B1: Serine/threonine-protein kinase STE11 (Saccharomyces cerevisiae), P23561 (parent)
# chain: MEQTQTAEGTDLLIGDEKTNDLPFVQLFLEEIGCTQYLDSFIQCNLVTEEEIKYLDKDILIALGVNKIGDRLKILRKSKSFQRDKRIEQVNRLKNLMEKVSSLSTATLSMNSELIPEKHCVIFILNDGSAKKVNVNGCFNADSIKKRLIRRLPHELLATNSNGEVTKMVQDYDVFVLDYTKNVLHLLYDVELVTICHANDRVEKNRLIFVSKDQTPSDKAISTSKKLYLRTLSALSQVGPSSSNLLAQNKGISHNNAEGKLRIDNTEKDRIRQIFNQRPPSEFISTNLAGYFPHTDMKRLQKTMRESFRHSARLSIAQRRPLSAESNNIGDILLKHSNAVDMALLQGLDQTRLSSKLDTTKIPKLAHKRPEDNDAISNQLELLSVESGEEEDHDFFGEDSDIVSLPTKIATPKNWLKGACIGSGSFGSVYLGMNAHTGELMAVKQVEIKNNNIGVPTDNNKQANSDENNEQEEQQEKIEDVGAVSHPKTNQNIHRKMVDALQHEMNLLKELHHENIVTYYGASQEGGNLNIFLEYVPGGSVSSMLNNYGPFEESLITNFTRQILIGVAYLHKKNIIHRDIKGANILIDIKGCVKITDFGISKKLSPLNKKQNKRASLQGSVFWMSPEVVKQTATTAKADIWSTGCVVIEMFTGKHPFPDFSQMQAIFKIGTNTTPEIPSWATSEGKNFLRKAFELDYQYRPSALELLQHPWLDAHII
# partner: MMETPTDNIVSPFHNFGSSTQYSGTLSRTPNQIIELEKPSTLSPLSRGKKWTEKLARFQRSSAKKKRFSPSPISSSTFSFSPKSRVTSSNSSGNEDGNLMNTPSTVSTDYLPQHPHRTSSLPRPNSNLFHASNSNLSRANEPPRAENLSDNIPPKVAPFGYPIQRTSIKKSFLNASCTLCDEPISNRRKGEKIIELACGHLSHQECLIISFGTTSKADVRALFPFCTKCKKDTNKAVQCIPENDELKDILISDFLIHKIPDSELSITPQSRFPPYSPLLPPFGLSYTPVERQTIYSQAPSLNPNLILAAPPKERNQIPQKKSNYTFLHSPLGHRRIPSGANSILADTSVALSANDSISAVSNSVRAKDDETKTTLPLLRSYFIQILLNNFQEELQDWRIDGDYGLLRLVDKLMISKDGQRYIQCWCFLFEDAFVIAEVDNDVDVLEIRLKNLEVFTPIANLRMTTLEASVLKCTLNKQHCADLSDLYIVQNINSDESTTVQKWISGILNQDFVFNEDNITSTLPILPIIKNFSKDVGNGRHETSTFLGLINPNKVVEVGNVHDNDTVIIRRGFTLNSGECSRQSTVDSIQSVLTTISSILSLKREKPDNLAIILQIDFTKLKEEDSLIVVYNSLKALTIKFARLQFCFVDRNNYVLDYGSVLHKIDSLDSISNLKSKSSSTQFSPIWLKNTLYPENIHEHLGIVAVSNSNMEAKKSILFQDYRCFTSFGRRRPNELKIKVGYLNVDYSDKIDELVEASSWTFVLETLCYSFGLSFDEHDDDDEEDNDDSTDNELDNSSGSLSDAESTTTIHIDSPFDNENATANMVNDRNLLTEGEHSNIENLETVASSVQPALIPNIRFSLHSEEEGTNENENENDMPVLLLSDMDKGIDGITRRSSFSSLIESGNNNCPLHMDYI
# B2: Serine/threonine-protein kinase STE11 (Saccharomyces cerevisiae), P23561 (parent)
# chain: B1 chain
# partner: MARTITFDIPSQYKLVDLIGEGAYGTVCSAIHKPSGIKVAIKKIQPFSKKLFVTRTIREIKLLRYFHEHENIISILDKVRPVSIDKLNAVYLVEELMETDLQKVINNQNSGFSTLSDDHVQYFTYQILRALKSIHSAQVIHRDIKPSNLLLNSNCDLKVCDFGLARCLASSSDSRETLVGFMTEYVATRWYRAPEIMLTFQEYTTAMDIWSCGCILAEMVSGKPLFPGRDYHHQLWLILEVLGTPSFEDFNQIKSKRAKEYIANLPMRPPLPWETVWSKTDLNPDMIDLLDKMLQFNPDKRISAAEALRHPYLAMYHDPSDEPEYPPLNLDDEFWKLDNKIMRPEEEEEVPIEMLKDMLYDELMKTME
# B3: Serine/threonine-protein kinase STE11 (Saccharomyces cerevisiae), P23561 (parent)
# chain: B1 chain
# Variants of: B1
# Settings: with ste5_yeast STE5, P32917
row,Variant,effect of a mutation on the interaction
1,P279S,increasing interaction

# Variants of: B2
# Settings: with kss1_yeast KSS1, P14681
row,Variant,effect of a mutation on the interaction
1,P279S,decreasing interaction

# Variants of: B3
# Settings: with fus3_yeast FUS3, P16892
# Sequence of fus3_yeast FUS3, P16892 (P16892 whole entry): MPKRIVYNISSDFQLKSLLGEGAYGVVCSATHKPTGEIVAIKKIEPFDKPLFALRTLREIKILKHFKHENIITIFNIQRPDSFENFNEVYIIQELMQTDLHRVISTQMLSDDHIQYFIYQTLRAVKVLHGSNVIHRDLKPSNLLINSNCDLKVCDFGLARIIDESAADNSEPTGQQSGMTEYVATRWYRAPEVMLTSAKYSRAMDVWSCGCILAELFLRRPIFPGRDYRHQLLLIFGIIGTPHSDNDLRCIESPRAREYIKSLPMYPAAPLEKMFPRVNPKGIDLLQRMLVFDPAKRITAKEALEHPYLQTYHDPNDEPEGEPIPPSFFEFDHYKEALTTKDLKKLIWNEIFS
row,Variant,effect of a mutation on the interaction
1,P279S,decreasing interaction
